T1: PirB (Mus musculus, UniProt P97484)
T1 construct: PILRbeta part (fusion partner); expressed in transfected cells
T1 sequence (P97484 25-642): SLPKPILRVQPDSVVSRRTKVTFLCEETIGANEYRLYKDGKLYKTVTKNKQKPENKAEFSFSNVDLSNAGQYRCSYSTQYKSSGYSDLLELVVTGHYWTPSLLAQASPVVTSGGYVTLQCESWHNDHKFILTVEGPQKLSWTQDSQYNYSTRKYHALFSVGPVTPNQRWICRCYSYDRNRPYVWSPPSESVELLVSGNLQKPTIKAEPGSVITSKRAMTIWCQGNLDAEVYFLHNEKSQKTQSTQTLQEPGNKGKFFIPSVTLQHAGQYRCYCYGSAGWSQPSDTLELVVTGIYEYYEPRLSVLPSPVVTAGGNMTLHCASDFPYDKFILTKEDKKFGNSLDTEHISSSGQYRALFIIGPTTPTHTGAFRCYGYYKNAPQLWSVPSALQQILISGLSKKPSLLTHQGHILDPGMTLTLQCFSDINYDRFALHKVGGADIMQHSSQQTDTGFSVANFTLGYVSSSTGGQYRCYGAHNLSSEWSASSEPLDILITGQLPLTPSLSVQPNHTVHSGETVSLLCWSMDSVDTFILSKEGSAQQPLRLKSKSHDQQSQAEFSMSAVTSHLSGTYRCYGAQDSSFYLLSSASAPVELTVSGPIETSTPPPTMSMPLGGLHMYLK

T2: gp49B1 (Mus musculus, UniProt Q64281)
T2 construct: PILRbeta part (fusion partner); expressed in transfected cells
T2 sequence (Q64281 24-238): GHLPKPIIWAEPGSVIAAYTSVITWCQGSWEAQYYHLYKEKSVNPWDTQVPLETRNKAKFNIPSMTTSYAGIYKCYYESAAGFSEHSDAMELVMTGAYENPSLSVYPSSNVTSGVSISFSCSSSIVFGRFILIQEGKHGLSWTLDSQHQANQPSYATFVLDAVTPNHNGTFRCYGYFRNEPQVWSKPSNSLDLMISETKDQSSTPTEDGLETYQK


Experiments:
THP-1 cells [1] = assay: Transwell trans-endothelial migration of THP-1 cells; assay type: cell-based, human; conditions: 2.5 μM STAT inhibitor
LILRB4-Fc [2] = target: T3, LILRB4-Fc (Homo sapiens, UniProt Q8NHJ6); assay: Surface plasmon resonance (SPR) binding of APOE to LILRB4-Fc; conditions: APOE 1.5625 nM to 100 nM
T3 sequence (Q8NHJ6 22-259 limits assumed): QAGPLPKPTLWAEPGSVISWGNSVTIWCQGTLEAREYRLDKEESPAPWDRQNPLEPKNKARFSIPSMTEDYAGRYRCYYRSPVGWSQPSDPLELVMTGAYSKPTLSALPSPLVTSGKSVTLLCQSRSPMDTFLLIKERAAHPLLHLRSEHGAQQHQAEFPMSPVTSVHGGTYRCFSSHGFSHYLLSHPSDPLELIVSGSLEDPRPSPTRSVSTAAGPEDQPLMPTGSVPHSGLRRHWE
Excerpt: (§1) FIGS. 25a-251—APOE binds LILRB4 and supports AML migration. FIG. 25a: As shown by analysis of the percentage of cells in the LILRB4 reporter system that are GFP^+, human serum and mouse serum specifically activate LILRB4. FIG. 25b: Recombinant APOE activates human LILRB4 and mouse PIRB in reporter systems. FIG. 25c: Serum from APOE-null mouse was unable to activate LILRB4. FIG. 25d: Lipid-reconstituted APOE (APOE-POPC) activates human LILRB4 as well as recombinant APOE in reporter systems. […] Cells stained with anti-His tag-APC served as a negative control. FIG. 25f: Binding kinetics of human APOE-3 to LILRB4-ECD-Fc were measured using surface plasmon resonance (SPR). LILRB4-ECD-Fc was immobilized on Protein A biosensor tips and incubated with APOE-3 concentrations ranging from 1.5625 nM to 100 nM. FIG. 25g: The activation of LILRB4 by APOE was reduced by mutation at N-terminal of APOE. FIG. 25h: The activation of LILRB4 by APOE was reduced by the indicated single amino acid mutation of LILRB4. FIG. 25i-FIG. 25l: APOE is necessary for LILRB4-mediated homing. Forced expression of human lilrb4 on mouse leukemia C1498 cells increases leukemia cell homing in wildtype (WT) recipient mice (n=5) (shown in FIG. 25i). Human lilrb4-expressing C1498 cells (1), but not control GFP-expressing C1498 cells (FIG. 25k), were less capable of homing in APOE-null (KO) mice (n=5) than in WT mice (n=5); Mice were sacrificed at 20 hrs after injection of leukemia cells. GFP was used to detect leukemia cells by flow cytometry.
(§2) FIGS. 29a-29g—Three APOE isoforms bind to human LILRB4. FIGS. 29a-c: Binding kinetics of APOE 2, 3, and 4 to LILRB4-Fc were measured using surface plasmon resonance (SPR). LILRB4-Fc was immobilized on Protein A biosensor tips and incubated with APOE concentrations ranging from 1.5625 nM to 100 nM. […] (FIGS. 29d-f) Binding kinetics of APOE 2, 3, and 4 to LILRB4-Fc were measured using Bio-layer Interferometry (Octet). LILRB4-Fc was immobilized on Protein A biosensor tips and incubated with APOE concentrations ranging from 44 nM to 1176 nM. […] (FIG. 29g) Binding kinetics of APOE 3 to His-LILRB4 was measured using microscale thermophoresis (MST).

LILRB4-Fc [3] = target: T3, LILRB4-Fc; assay: Bio-layer interferometry (Octet) binding of APOE to LILRB4-Fc; conditions: APOE 44 nM to 1176 nM
Protocol: as §2
Bio-layer Interferometry. Binding interactions analyses between LILRB4-Fc with APOE2, APOE3, and APOE4 were performed on the Octet RED96 (ForteBio, Pall Corporation). All interaction studies were performed with the protein A dip-and-read biosensors (ForteBio). All binding experiments were performed using the Octet Red and kinetics buffer at 30° C. LILRB4-Fc coated biosensors (25 μg/ml LILRB4-Fc was loaded for 420 s) were washed in kinetics buffer before monitoring of association (300 s) and dissociation (600 s) of APOEs. Background wavelength shifts were measured from reference sensors that were loaded only with LILRB4-Fc.

LILRB4 = target: T4, LILRB4 (Homo sapiens, UniProt Q8NHJ6); assay: LILRB4 chimeric receptor reporter cells (NFAT-GFP); assay type: cell-based; conditions: for Activation of LILRB4 reporter by APOE isoforms: 40 μg/ml APOEs coated on plates or soluble; for Activation of LILRB4 reporter: percentage of GFP+ reporter cells
T4 construct: fusion of the extracellular domain (ECD) of individual LILRBs and their mouse orthologues; PILRbeta part (fusion partner); expressed in transfected cells
T4 sequence (Q8NHJ6 with tags, fused parts or gaps): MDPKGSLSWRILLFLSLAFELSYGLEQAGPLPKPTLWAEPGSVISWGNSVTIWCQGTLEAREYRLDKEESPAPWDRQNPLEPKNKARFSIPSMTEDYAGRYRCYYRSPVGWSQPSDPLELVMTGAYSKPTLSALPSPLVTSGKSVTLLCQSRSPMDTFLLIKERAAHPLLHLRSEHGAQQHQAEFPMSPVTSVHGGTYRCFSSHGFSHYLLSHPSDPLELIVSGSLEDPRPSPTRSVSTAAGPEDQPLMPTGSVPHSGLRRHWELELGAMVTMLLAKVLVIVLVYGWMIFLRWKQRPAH
Excerpt: The inventors sought to determine if antagonizing LILRB4 could prevent AML development by reversing LILRB4-mediated immune inhibition. To identify potential agonists and antagonists of LILRBs, the inventors generated individual stable chimeric receptor reporter cells based on fusion of the extracellular domain (ECD) of individual LILRBs and their mouse orthologues PirB^27 and gp49B1^28, with the intracellular domain of paired immunoglobulin-like receptor β, which signals through the adaptor DAP-12 to activate NFAT promoter-driven GFP expression, as the inventors have described^2, 31. With help from this system, the inventors generated novel anti-LILRB4 blocking antibodies to further assess LILRB4-mediated signaling (FIG. 10).
(§3) Chimeric receptor reporter cells. The inventors constructed a stable chimeric receptor reporter cell system as described^2 31 to test the ability of a ligand to bind to the ECD of individual LILRBs, PirB, and gp49B1 and to trigger the activation or inhibition of the chimerically fused intracellular domain of paired immunoglobulin-like receptor β, which signals through the adaptor DAP-12 to activate the NFAT promoter. If an agonist or antagonist binds the ECD and activates or suppresses the chimeric signaling domain, an increase or decrease, respectively, in GFP expression is observed.
APOE competition assay was used to screen LILRB4 blocking antibodies. Briefly, APOE proteins were pre-coated on 96-well plate at 37° C. for 3 hrs. After 2 times washing by PBS, 2×10^4 LILRB4 reporter cells were seeded in each well; meanwhile, indicated anti-LILRB4 antibodies were added into culture media. After 16 hrs, the percentage of GFP^+ reporter cells was analysed by flow cytometry.

PirB = target: T1, PirB; assay: PirB chimeric receptor reporter cells; assay type: cell-based
Excerpt: as §3

gp49B1 = target: T2, gp49B1; assay: gp49B1 chimeric receptor reporter cells; assay type: cell-based
Excerpt: as §3

THP-1 cells [4] = assay: APOE binding to THP-1 cells by flow cytometry; set-up: species or system human; conditions: lilrb4-knockout versus wild-type THP-1 cells
Excerpt: as §1, with “Human lilrb4-expressing C1498 cells (1), but not control GFP-expressing C1498 cells (FIG. 25k), were less capable of homing in APOE-null (KO) mice (n=5) than in WT mice (n=5); Mice were sacrificed at 20 hrs after injection of leukemia cells. GFP was used to detect leukemia cells by flow cytometry.” left out

[5] = system: T cells co-cultured with THP-1 cells; assay: Tumor cell/T cell co-culture assay; assay type: cell-based, human; conditions: T cells with irradiated THP-1 cells, protein supplemented
Protocol: Tumor cell/T cell co-culture assay. Human T cells isolated from health donor peripheral blood (PB009-1-0, Allcells) were co-cultured with irradiated (28 Gy) THP-1 cells in a U-bottom 96 well-plate for 3-7 days. Anti-CD3/CD28-coated beads (#11161D, Thermo Fisher), 50 U/ml recombinant human IL-2, and 5 ng/ml recombinant human IL-7 were supplemented to the medium. In some experiments, THP-1 cells were cultured in the upper chamber of transwell inserts (pore size is 3 μM, #09-761-80, Thermo Fisher) for the U-bottom 96 well-plate. For primary AML or B-ALL samples, patient CD3^+ T cells were collected and patient leukemia cells were sorted as CD33^+ and CD19^+ for AML and B-ALL, respectively.
CD8^+ T cells (5×10^4 per well) isolated from hPBMCs of a healthy donor (Interstate Blood Bank) were stimulated with anti-CD3/CD28/CD137-coated beads (11163D, Thermo Fisher) or cultured without stimulation for 2 days in a 96-well plate. Then, 5×10^3 human leukemia THP-1-Luc-GFP cells and 50 to 500 μg/ml anti-LILRB4 antibody C84 or control antibody mIgG were added. Cell numbers were determined on day 7 in triplicate wells. Anti-CD8 and anti-CD28 were used to detect human CTL cells; THP-1 cells were positive for GFP. […]

Row | Molecule | Kd (LILRB4-Fc [2]) [nM] | Kd (LILRB4-Fc [3]) [nM] | Activation of LILRB4 reporter by APOE isoforms (LILRB4) | Activation of LILRB4 reporter (LILRB4) | also measured
1 | O=[N+]([O-])c1ccc2c(c1)S(=O)(=O)C=C2 [stattic, reference compound] |  |  |  |  | THP-1 cell transmigration across endothelial cells (THP-1 cells [1]): decreases
2 | APOE2: isoform of human APOE, ligand of LILRB4 | 5.53 | 60.7 | activate |  | 
3 | APOE3: isoform of human APOE, ligand of LILRB4 | 2.48 | 61.7 | activate |  | 
4 | APOE4: isoform of human APOE, ligand of LILRB4 | 3.57 | 48.4 | activate |  | 
5 | APOE-POPC: liposome-reconstituted APOE protein |  |  |  | same ability as lipid-free APOE protein | 
6 | recombinant APOE: recombinant APOE protein, isoform not stated at the place | 2 |  |  | activates | Activation of mouse PirB reporter (PirB): specifically activated; Activation of gp49B1 reporter (gp49B1): not; Binding of APOE to THP-1 cells (THP-1 cells [4]): significantly decreased
7 | mouse APOE: mouse APOE protein (protein) EGEPEVTDQLEWQSNQPWEQALNRFWDYLRWVQTLSDQVQEELQSSQVTQELTALMEDTMTEVKAYKKELEEQLGPVAEETRARLGKEVQAAQARLGADMEDLRNRLGQYRNEVHTMLGQSTEEIRARLSTHLRKMRKRLMRDAEDLQKRLAVYKAGAREGAERGVSAIRERLGPLVEQGRQRTANLGAGAAQPLRDRAQAFGDRIRGRLEEVGNQARDRLEEVREHMEEVRSKMEEQTQQIRLQAEIFQARLKGWFEPIVEDMHRQWANLMEKIQASVATNPIITPVAQENQ |  |  |  | can activate | 
8 | CCL4: CCL4 protein supplemented in co-culture media (protein, UniProt P13236 24-92, looked up) C-C motif chemokine 4: APMGSDPPTACCFSYTARKLPRNFVVDYYETSSLCSQPAVVFQTKRSKQVCADPSESWVQEYVYDLELN |  |  |  |  | T cell proliferation in coculture [5]: suppressed
9 | Mut-N: N-terminal mutant of human APOE: R142A/K143A/R145A/K146A/R147A/R150A (protein) KVEQAVETEPEPELRQQTEWQSGQRWELALGRFWDYLRWVQTLSEQVQEELLSSQVTQELRALMDETMKELKAYKSELEEQLTPVAEETRARLSKELQAAQARLGADMEDVCGRLVQYRGEVQAMLGQSTEELRVRLASHLAALAAALLADADDLQKRLAVYQAGAREGAERGLSAIRERLGPLVEQGRVRAATVGSLAGQPLQERAQAWGERLRARMEEMGSRTRDRLDEVKEQVAEVRAKLEEQAQQIRLQAEAFQARLKSWFEPLVEDMQRQWAGLVEKVQAAVGTSAAPVPSDNH |  |  |  | significantly reduced | 

— US11906519B2, “Methods for identifying LILRB-blocking antibodies” (THE BOARD OF REGENTS OF THE UNIVERSITY OF TEXAS SYSTEM, priority 2016, dated 2024)
